Measured values from patent US20220332758A1, “PEPTIDE-BASED COMPOSITIONS AND METHODS FOR TREATING ALZHEIMER'S DISEASE” (Board of Regents, The Universityof Texas System, priority 2019, published 2022).
Where no end group is shown, it is not given here. [ ]: non-standard residue; d: D form. Aib = CC(C)(N)C(=O)O

Target: human housekeeping core (20S) proteasome purified from erythrocytes (human), P60900
Test: cell-based or functional assay

With GRKKRRQ[Aib]GQRRKKRG [Tat5-8,9 Aib] the AC50, ChT-L activity (Suc-LLVY-MCA) was 183 nM and the Max activation fold, ChT-L activity was 8.9 fold.
